# According to publication PMC10110466 (Nature biotechnology, 2022):
# T1: soluble human IL-2Rβγ complex (human, UniProt P31785 23-262; P14784 27-240, biotin)
# T1 sequence (looked up) 1: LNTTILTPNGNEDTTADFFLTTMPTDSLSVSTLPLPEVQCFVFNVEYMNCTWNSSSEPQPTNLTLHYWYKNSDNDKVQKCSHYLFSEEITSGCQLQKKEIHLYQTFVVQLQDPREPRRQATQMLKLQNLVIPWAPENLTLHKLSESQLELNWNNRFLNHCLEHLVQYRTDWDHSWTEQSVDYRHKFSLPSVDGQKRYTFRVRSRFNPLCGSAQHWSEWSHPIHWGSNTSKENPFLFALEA
# T1 sequence (looked up) 2: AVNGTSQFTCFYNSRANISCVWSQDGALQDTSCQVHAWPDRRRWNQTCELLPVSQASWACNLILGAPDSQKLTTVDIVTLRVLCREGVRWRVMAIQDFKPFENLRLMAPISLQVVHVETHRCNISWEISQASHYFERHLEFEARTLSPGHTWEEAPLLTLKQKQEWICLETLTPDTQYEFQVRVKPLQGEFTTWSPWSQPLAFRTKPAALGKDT
# Molecular target: T1, soluble human IL-2Rβγ complex
# Assay: cell-based or functional assay
binder,measurement,value
PKKKIQLHAEHALYDALMILNIVKTNS [Neo2A],"STAT5 phosphorylation in YT-1 human NK cells, EC50",> 40 µM
